Data taken from article PMC11107369, “The Plasmodium vivax MSP1P-19 is involved in binding of reticulocytes through interactions with the membrane proteins band3 and CD71” (The Journal of Biological Chemistry, 2024).

Biological target: T1, Recombinant CD71-ECD immobilised on the CM5 chip (SPR) (human, UniProt P02786 89-760)
T1 construct: Human transferrin receptor protein 1 (CD71), extracellular domain; source: recombinant
Test: SPR; BIAcore S200; CD71-ECD coupled to CM5 chip (EDC/NHS, 10 mM NaAc pH 4.5); analyte PvMSP1P-19 6.25, 12.5, 25, 50 μM at 30 μl/min; 1:1 Langmuir model; apparent KD
Settings: both partners purified

T1 sequence (P02786 89-760): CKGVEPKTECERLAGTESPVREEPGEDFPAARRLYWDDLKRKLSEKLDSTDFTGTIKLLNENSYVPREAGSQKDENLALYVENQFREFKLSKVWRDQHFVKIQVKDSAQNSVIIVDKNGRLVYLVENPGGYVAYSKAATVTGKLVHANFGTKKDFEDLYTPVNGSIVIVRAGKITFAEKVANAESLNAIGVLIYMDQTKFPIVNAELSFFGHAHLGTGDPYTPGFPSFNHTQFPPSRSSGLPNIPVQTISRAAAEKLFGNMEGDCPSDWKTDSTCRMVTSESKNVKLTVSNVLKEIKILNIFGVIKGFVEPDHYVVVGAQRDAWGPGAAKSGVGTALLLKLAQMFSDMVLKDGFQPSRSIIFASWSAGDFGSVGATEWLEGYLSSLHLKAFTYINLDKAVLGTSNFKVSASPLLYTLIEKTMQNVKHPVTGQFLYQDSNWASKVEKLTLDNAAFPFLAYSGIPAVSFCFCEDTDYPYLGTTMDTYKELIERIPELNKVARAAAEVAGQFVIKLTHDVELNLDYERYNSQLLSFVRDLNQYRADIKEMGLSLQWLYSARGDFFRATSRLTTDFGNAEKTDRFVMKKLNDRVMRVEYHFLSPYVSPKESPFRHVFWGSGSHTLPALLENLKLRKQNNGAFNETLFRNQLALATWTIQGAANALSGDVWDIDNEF

B1: Plasmodium vivax merozoite surface protein 1 paralog, 19-kDa C-terminal region (PvMSP1P-19), Trx-His-Flag-tagged (domain or fragment)
chain: DRVEKNCRNRKCPLNSFCFIQTINEECLCLLNYSMVGEKCILNEQNSCAVKNGGCDLKATCELKKNRVNCICPKGTKPMHEGVVCS
notes: P. vivax merozoite surface protein 1 paralog (PvMSP1P, 1854 aa), PlasmoDB PVX_099975, aa 1749-1834 (two EGF-like domains); Migrates at ~36 kDa; also called Trx-His-PvMSP1P-19; His-MSP1P-19; source: E. coli BL21 (DE3) and SHuffle T7 E. coli, pET32a, soluble, purified by Talen Biotech
Kd: 35.5 µM
